Measured values taken from publication PMC6624373.

B1: lamin A (human, mature form, without tags, wild type) [human] / itself (parent)
chain: METPSQRRATRSGAQASSTPLSPTRITRLQEKEDLQELNDRLAVYIDRVRSLETENAGLRLRITESEEVVSREVSGIKAAYEAELGDARKTLDSVAKERARLQLELSKVREEFKELKARNTKKEGDLIAAQARLKDLEALLNSKEAALSTALSEKRTLEGELHDLRGQVAKLEAALGEAKKQLQDEMLRRVDAENRLQTMKEELDFQKNIYSEELRETKRRHETRLVEIDNGKQREFESRLADALQELRAQHEDQVEQYKKELEKTYSAKLDNARQSAERNSNLVGAAHEELQQSRIRIDSLSAQLSQLQKQLAAKEAKLRDLEDSLARERDTSRRLLAEKEREMAEMRARMQQQLDEYQELLDIKLALDMEIHAYRKLLEGEEERLRLSPSPTSQRSRGRASSHSSQTQGGGSVTKKRKLESTESRSSFSQHARTSGRVAVEEVDEEGKFVRLRNKSNEDQSMGNWQIKRQNGDDPLLTYRFPPKFTLKAGQVVTIWAAGAGATHSPPTDLVWKAQNTWGCGNSLRTALINSTGEEVAMRKLVRSVTVVEDDEDEDGDDLLHHHHGSHCSSSGDPAEYNLRSRTVLCGTCGQPADKASASGSGAQVGGPISSGSSASSVTVTRSYRSVGGSGGGSFGDNLVTRSY

Variants of: B1
Assay: rotary metal shadowing EM
Settings: with itself; n = 1000 per mutant; parent: 22; read off a plot

Variant	screen value
chain 1 R7E R8E	13%

Same assay, conditions: with itself; n = 1000 per mutant; parent: 35; read off a plot

Variant	screen value
chain 1 R7E R8E	30%

Same assay, conditions: with itself; n = 1000 per mutant; parent: 43; read off a plot

Variant	screen value
chain 1 R7E R8E	57%

Variants of: B1
Assay: in vitro assembly/solubility assay (centrifugation, SDS-PAGE band quantification)
Settings: with itself; oligomerisation buffer; n = 3 independent replicas; parent: 1; read off a plot

Variant	ratio to parent
chain 1 R7E R8E	3.7
